# How the values were obtained:
# [1] = target: MBP-ZnF-Cst (Mus musculus castaneus (CAST/EiJ)) (UniProt Q96EQ9); test: EMSA; details: 10 mM Tris pH 7.5, 50 mM KCl, 50 uM ZnCl2, 0.05% NP-40 (1x TKZN), usually 50 ng/ul polydIdC, 60 min at RT, 5% native PAGE in 0.5x TBE
# [2] = target: His-Halo-PRDM9^Cst ZnF1-11 (Mus musculus castaneus (CAST/EiJ strain)); test: native gel or EMSA; multimer assay II as a2, with the semipure (ion-exchange) Halo-tagged construct; the shifted band was shown by MALDI-TOF mass spectrometry to hold mainly PRDM9 peptides
# [3] = target: His-MBP-eYFP-PRDM9^Cst ZnF (Mus musculus castaneus (CAST/EiJ strain)); test: native gel or EMSA; multimer assay II: construct bound to a 75-bp DNA (Hlx1 for PRDM9^Cst, Pbx1 for PRDM9^Dom2), native gel; MW of the lower shift read against a ladder of free DNA (75-740 bp) and divided by the monomer's MW; four replicates; crude bacterial lysates or in vitro expressed protein
# [4] = target: His-MBP-eYFP-PRDM9^Dom2 ZnF (Mus musculus domesticus (C57BL/6J strain)); test: as above
# [5] = target: His-PRDM9^Cst ZnF1-11 (Mus musculus castaneus (CAST/EiJ strain)); test: native gel or EMSA; multimer assay I: construct bound to single-Hlx1 and tandem-Hlx1 DNA fragments of rising length, native 5% polyacrylamide gel; MW of the second complex (supershift) read from the regression of the lower shifts and divided by the monomer's MW; crude bacterial lysates or in vitro expressed protein
# [6] = target: His-PRDM9^Cst ZnF2-8 (Mus musculus castaneus (CAST/EiJ strain)); test: as above
# [7] = target: His-PRDM9^Cst ZnF2-8 (Mus musculus castaneus (CAST/EiJ strain)); test: native gel or EMSA; multimer assay II: construct bound to a 75-bp DNA (Hlx1 for PRDM9^Cst, Pbx1 for PRDM9^Dom2), native gel; MW of the lower shift read against a ladder of free DNA (75-740 bp) and divided by the monomer's MW; four replicates; crude bacterial lysates or in vitro expressed protein
# [8] = target: His-PRDM9^Cst ZnF2–6 (Mus musculus castaneus (CAST/EiJ strain)); test: native gel or EMSA; multimer assay I: construct bound to single-Hlx1 and tandem-Hlx1 DNA fragments of rising length, native 5% polyacrylamide gel; MW of the second complex (supershift) read from the regression of the lower shifts and divided by the monomer's MW; crude bacterial lysates or in vitro expressed protein
# [9] = target: His-PRDM9^Cst ZnF2–6 (Mus musculus castaneus (CAST/EiJ strain)); test: native gel or EMSA; multimer assay II: construct bound to a 75-bp DNA (Hlx1 for PRDM9^Cst, Pbx1 for PRDM9^Dom2), native gel; MW of the lower shift read against a ladder of free DNA (75-740 bp) and divided by the monomer's MW; four replicates; crude bacterial lysates or in vitro expressed protein
# [10] = target: His-PRDM9^Cst ZnF (Mus musculus castaneus (CAST/EiJ strain)); test: native gel or EMSA; multimer assay I: construct bound to single-Hlx1 and tandem-Hlx1 DNA fragments of rising length, native 5% polyacrylamide gel; MW of the second complex (supershift) read from the regression of the lower shifts and divided by the monomer's MW; crude bacterial lysates or in vitro expressed protein
# [11] = target: His-eYFP-PRDM9^Cst (full-length PRDM9^Cst with KRAB, SSXRD, PR/SET and ZnF domains) (Mus musculus castaneus (CAST/EiJ strain)); test: native gel or EMSA; multimer assay II: construct bound to a 75-bp DNA (Hlx1 for PRDM9^Cst, Pbx1 for PRDM9^Dom2), native gel; MW of the lower shift read against a ladder of free DNA (75-740 bp) and divided by the monomer's MW; four replicates; crude bacterial lysates or in vitro expressed protein
# [12] = target: His-eYFP-PRDM9^Cst ZnF1-11 (Mus musculus castaneus (CAST/EiJ strain)); test: native gel or EMSA; multimer assay I: construct bound to single-Hlx1 and tandem-Hlx1 DNA fragments of rising length, native 5% polyacrylamide gel; MW of the second complex (supershift) read from the regression of the lower shifts and divided by the monomer's MW; crude bacterial lysates or in vitro expressed protein
# [13] = target: His-eYFP-PRDM9^Cst ZnF1-11 (Mus musculus castaneus (CAST/EiJ strain)); test: native gel or EMSA; multimer assay II: construct bound to a 75-bp DNA (Hlx1 for PRDM9^Cst, Pbx1 for PRDM9^Dom2), native gel; MW of the lower shift read against a ladder of free DNA (75-740 bp) and divided by the monomer's MW; four replicates; crude bacterial lysates or in vitro expressed protein
# [14] = target: His-eYFP-PRDM9^Cst ZnF2-11 (Mus musculus castaneus (CAST/EiJ strain)); test: native gel or EMSA; multimer assay I: construct bound to single-Hlx1 and tandem-Hlx1 DNA fragments of rising length, native 5% polyacrylamide gel; MW of the second complex (supershift) read from the regression of the lower shifts and divided by the monomer's MW; crude bacterial lysates or in vitro expressed protein
# [15] = target: His-eYFP-PRDM9^Cst ZnF2-11 (Mus musculus castaneus (CAST/EiJ strain)); test: native gel or EMSA; multimer assay II: construct bound to a 75-bp DNA (Hlx1 for PRDM9^Cst, Pbx1 for PRDM9^Dom2), native gel; MW of the lower shift read against a ladder of free DNA (75-740 bp) and divided by the monomer's MW; four replicates; crude bacterial lysates or in vitro expressed protein
# [16] = target: His-eYFP-PRDM9^Cst ZnF (Mus musculus castaneus (CAST/EiJ strain)); test: native gel or EMSA; multimer assay I: construct bound to single-Hlx1 and tandem-Hlx1 DNA fragments of rising length, native 5% polyacrylamide gel; MW of the second complex (supershift) read from the regression of the lower shifts and divided by the monomer's MW; crude bacterial lysates or in vitro expressed protein
substance,measurement,setting,value
AACCCTGAGCTGCCTAAAGGTCAAATAGTGTGCAGACTTGGACCCTGCCCTTTCTTTAATAGTGTGCAGACTTGGACCCTGCCCTTTCTTTCTGCTGTGAATACCAGAGGCACA (double strand) [tandem-Hlx1 114 bp],Kd,"[1]; sum of lower shift and supershift, two complexes",35 nM
GTGGGAGGAGATGGTGGGTGAATAGTGTGCAGACTTGGACCCTGCCCTTTCTTTACGCATTCCACTAACCATGGG (double strand) [single-Hlx1 75 bp],Kd,[1]; 60 min incubation,48 nM
His-Halo-PRDM9^Cst ZnF1-11 (domain or fragment),stoichiometry N,[2],3
His-MBP-eYFP-PRDM9^Cst ZnF (domain or fragment),stoichiometry N,[3],3
His-MBP-eYFP-PRDM9^Dom2 ZnF (domain or fragment),stoichiometry N,[4],3
His-PRDM9^Cst ZnF1-11 (domain or fragment),stoichiometry N,[5],3
His-PRDM9^Cst ZnF2-8 (domain or fragment),stoichiometry N,[6],2.7
same,stoichiometry N,[7],2.5
His-PRDM9^Cst ZnF2–6 (domain or fragment),stoichiometry N,[8],2.9
same,stoichiometry N,[9],2.9
His-PRDM9^Cst ZnF (domain or fragment),stoichiometry N,[10],3
"His-eYFP-PRDM9^Cst (full-length PRDM9^Cst with KRAB, SSXRD, PR/SET and ZnF domains) (natural protein)",stoichiometry N,[11],3
His-eYFP-PRDM9^Cst ZnF1-11 (domain or fragment),stoichiometry N,[12],3.8
same,stoichiometry N,[13],3.5
His-eYFP-PRDM9^Cst ZnF2-11 (domain or fragment),stoichiometry N,[14],2.7
same,stoichiometry N,[15],3
His-eYFP-PRDM9^Cst ZnF (domain or fragment),stoichiometry N,[16],3

# — publication PMC6643046
